Positions count from the first letter of the chain named.
B1: murine 224G11 Mab (antibody, V domains shown)
VH: EVQLQQSGPELVKPGASVKISCKTSGYIFTAYTMHWVRQSLGESLDWIGGIKPNNGLANYNQKFKGKATLTVDKSSSTAYMDLRSLTSEDSAVYYCARSEITTEFDYWGQGTALTVSS
VL: DIVLTQSPASLAVSLGQRATISCRASESVDSYANSFMHWYQQKPGQPPKLLIYRASNLESGIPARFSGSGSRTDFTLTINPVEADDVATYYCQQSKEDPLTFGSGTKLEMKR
B2: [224G11]chim (antibody, human IgG1, V domains shown)
VH: B1 VH
VL: B1 VL
B3: [224G11] [MH chim] (antibody, V domains shown)
VH: B1 VH
VL: B1 VL
B4: [224G11] [MUP9H chim] (antibody, V domains shown)
VH: B1 VH
VL: B1 VL
B5: [224G11] [MMCH chim] (antibody, V domains shown)
VH: B1 VH
VL: B1 VL
B6: [224G11] [TH7 chim] (antibody, human IgG1)
heavy: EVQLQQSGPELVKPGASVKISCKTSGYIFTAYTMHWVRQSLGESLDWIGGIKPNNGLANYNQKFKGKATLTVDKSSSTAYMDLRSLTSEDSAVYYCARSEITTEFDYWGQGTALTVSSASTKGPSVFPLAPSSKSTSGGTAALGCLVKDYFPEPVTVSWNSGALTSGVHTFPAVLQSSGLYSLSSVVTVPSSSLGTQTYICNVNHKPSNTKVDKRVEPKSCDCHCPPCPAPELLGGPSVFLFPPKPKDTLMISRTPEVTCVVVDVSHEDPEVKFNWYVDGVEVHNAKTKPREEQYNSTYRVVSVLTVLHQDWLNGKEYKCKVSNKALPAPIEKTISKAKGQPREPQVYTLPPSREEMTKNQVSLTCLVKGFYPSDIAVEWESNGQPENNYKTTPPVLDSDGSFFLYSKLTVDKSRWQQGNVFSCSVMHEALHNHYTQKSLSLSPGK
light: DIVLTQSPASLAVSLGQRATISCRASESVDSYANSFMHWYQQKPGQPPKLLIYRASNLESGIPARFSGSGSRTDFTLTINPVEADDVATYYCQQSKEDPLTFGSGTKLEMKRTVAAPSVFIFPPSDEQLKSGTASVVCLLNNFYPREAKVQWKVDNALQSGNSQESVTEQDSKDSTYSLSSTLTLSKADYEKHKVYACEVTHQGLSSPVTKSFNRGEC
B7: [224G11] [IgG2 chim] (antibody)
heavy: EVQLQQSGPELVKPGASVKISCKTSGYIFTAYTMHWVRQSLGESLDWIGGIKPNNGLANYNQKFKGKATLTVDKSSSTAYMDLRSLTSEDSAVYYCARSEITTEFDYWGQGTALTVSSASTKGPSVFPLAPCSRSTSESTAALGCLVKDYFPEPVTVSWNSGALTSGVHTFPAVLQSSGLYSLSSVVTVPSSNFGTQTYTCNVDHKPSNTKVDKTVERKCCVECPPCPAPPVAGPSVFLFPPKPKDTLMISRTPEVTCVVVDVSHEDPEVQFNWYVDGVEVHNAKTKPREEQFNSTFRVVSVLTVVHQDWLNGKEYKCKVSNKGLPAPIEKTISKTKGQPREPQVYTLPPSREEMTKNQVSLTCLVKGFYPSDIAVEWESNGQPENNYKTTPPMLDSDGSFFLYSKLTVDKSRWQQGNVFSCSVMHEALHNHYTQKSLSLSPG
light: B6 light
B8: [224G11] [TH7 Hz2] (antibody, human IgG1, V domains shown)
VH: QVQLVQSGAEVKKPGASVKVSCKASGYIFTAYTMHWVRQAPGQGLEWMGWIKPNNGLANYAQKFQGRVTMTRDTSISTAYMELSRLRSDDTAVYYCARSEITTEFDYWGQGTLVTVSS
VL: DIVMTQSPDSLAVSLGERATINCKSSESVDSYANSFMHWYQQKPGQPPKLLIYRASTRESGVPDRFSGSGSGTDFTLTISSLQAEDVAVYYCQQSKEDPLTFGGGTKVEIKR
B9: [224G11] [TH7 Hz1] (antibody, human IgG1, V domains shown)
VH: B8 VH
VL: B8 VL with M4L, G72R
B10: [224G11] [TH7 Hz3] (antibody, human IgG1, V domains shown)
VH: B8 VH
VL: B8 VL with M37L
B11: [224G11] [Hz1] (antibody, V domains shown)
VH: B8 VH
VL: B8 VL with M4L, G72R
B12: [224G11] [Hz2] (antibody, V domains shown)
VH: B8 VH
VL: B8 VL
B13: [224G11] [Hz3] (antibody, V domains shown)
VH: B8 VH
VL: B8 VL with M37L

Biological target: C-Met-Rluc (R. reniformis, UniProt P08581 25-1390)
Assay: cell-based or functional assay

C-Met-Rluc, sequence (P08581 25-1390): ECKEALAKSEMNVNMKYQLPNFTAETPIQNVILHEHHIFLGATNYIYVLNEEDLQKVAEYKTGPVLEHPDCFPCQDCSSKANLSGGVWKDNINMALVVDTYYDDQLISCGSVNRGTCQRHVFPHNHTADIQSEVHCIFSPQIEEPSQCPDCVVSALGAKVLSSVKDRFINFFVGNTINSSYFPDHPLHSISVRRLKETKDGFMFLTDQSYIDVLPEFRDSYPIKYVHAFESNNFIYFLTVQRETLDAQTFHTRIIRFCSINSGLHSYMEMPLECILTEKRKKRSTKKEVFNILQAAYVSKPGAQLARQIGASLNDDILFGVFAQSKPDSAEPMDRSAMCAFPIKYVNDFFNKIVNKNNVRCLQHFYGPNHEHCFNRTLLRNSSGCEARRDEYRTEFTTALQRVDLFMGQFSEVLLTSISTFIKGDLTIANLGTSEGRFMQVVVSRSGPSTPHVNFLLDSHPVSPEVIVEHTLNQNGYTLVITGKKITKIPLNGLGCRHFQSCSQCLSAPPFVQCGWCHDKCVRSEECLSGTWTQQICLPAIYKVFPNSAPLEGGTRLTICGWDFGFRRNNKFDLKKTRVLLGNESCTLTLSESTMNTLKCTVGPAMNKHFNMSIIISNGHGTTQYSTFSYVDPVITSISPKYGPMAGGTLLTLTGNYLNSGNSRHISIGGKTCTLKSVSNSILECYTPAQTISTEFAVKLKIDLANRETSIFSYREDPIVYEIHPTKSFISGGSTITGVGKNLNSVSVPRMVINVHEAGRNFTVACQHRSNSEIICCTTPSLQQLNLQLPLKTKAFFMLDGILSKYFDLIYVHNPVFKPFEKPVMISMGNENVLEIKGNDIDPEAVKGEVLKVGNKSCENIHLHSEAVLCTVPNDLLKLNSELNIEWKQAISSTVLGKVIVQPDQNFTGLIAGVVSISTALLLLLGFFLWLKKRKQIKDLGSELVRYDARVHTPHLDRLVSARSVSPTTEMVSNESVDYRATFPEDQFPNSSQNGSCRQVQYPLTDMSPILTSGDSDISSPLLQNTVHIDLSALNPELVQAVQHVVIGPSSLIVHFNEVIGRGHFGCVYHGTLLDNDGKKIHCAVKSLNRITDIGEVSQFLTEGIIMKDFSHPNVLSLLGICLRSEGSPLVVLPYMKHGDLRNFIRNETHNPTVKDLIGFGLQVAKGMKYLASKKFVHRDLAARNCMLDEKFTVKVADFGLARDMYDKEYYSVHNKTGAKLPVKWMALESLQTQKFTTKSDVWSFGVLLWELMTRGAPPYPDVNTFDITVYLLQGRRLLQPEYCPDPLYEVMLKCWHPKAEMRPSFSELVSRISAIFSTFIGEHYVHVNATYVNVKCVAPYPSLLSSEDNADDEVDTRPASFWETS

Row | Binder | inhibition of HGF induced BRET signal, c-Met activation model [%] | inhibition of HGF induced BRET signal, c-Met dimerization model [%] | BRET signal with Mab alone, c-Met activation model [%]
1 | B1 | 56.4 | 59.4 | 
2 | B2 | 34.5 | 28.9 | 
3 | B3 | 59.7 | 61.8 | 5.1
4 | B4 | 64.4 | 64.4 | 7.6
5 | B5 | 53.2 | 52.5 | -2
6 | B6 | 73.8 | 64.4 | -6.9
7 | B7 |  | 62.4 | 
8 | B8 | 41.8 | 35.8 | 
9 | B9 | 59.9 | 52.2 | 
10 | B10 | 57.9 | 49.4 | 

Biological target: human c-Met receptor (human, UniProt P08581 25-1390)
Assay: cell-based or functional assay

human c-Met receptor, sequence (P08581 25-1390): as above

Row | Binder | inhibition of HGF-induced proliferation of NCI-H441 cells ([3H]thymidine), FIG. 14A [%] | inhibition of HGF-induced proliferation of NCI-H441 cells ([3H]thymidine), FIG. 14B [%] | inhibition of HGF-induced proliferation of NCI-H441 cells ([3H]thymidine), FIG. 15 [%]
11 | B1 | 66 | 57 | 74
12 | B2 | 19 |  | 33
13 | B3 |  | 79 | 
14 | B4 |  | 78 | 
15 | B5 |  | 84 | 
16 | B6 |  | 93 | 81
17 | B11 | ~46 |  | 
18 | B12 | ~30 |  | 
19 | B9 |  |  | 67
20 | B10 |  |  | 76
21 | B13 | ~35 |  | 

— patent US20110239316A1 (PIERRE FABRE MEDICAMENT, published 2011)
